Results as given in PMC11574045, “A cofactor-induced repressive type of transcription factor condensation can be induced by synthetic peptides to suppress tumorigenesis” (The EMBO Journal, 2024).

B1: PRDM8 (protein, UniProt Q9NQV8 1-689, looked up)
PR domain zinc finger protein …: MEDTGIQRGIWDGDAKAVQQCLTDIFTSVYTTCDIPENAIFGPCVLSHTSLYDSIAFIALKSTDKRTVPYIFRVDTSAANGSSEGLMWLRLVQSARDKEEQNLEAYIKNGQLFYRSLRRIAKDEELLVWYGKELTELLLLCPSRSHNKMNGSSPYTCLECSQRFQFEFPYVAHLRFRCPKRLHSADISPQDEQGGGVGTKDHGGGGGGGKDQQQQQQEAPLGPGPKFCKAGPLHHYPSPSPESSNPSAAAGGSSAKPSTDFHNLARELENSRGGSSCSPAQSLSSGSGSGGGGGHQEAELSPDGIATGGGKGKRKFPEEAAEGGGGAGLVGGRGRFVERPLPASKEDLVCTPQQYRASGSYFGLEENGRLFAPPSPETGEAKRSAFVEVKKAARAASLQEEGTADGAGVASEDQDAGGGGGSSTPAAASPVGAEKLLAPRPGGPLPSRLEGGSPARGSAFTSVPQLGSAGSTSGGGGTGAGAAGGAGGGQGAASDERKSAFSQPARSFSQLSPLVLGQKLGALEPCHPADGVGPTRLYPAAADPLAVKLQGAADLNGGCGSLPSGGGGLPKQSPFLYATAFWPKSSAAAAAAAAAAAAGPLQLQLPSALTLLPPSFTSLCLPAQNWCAKCNASFRMTSDLVYHMRSHHKKEYAMEPLVKRRREEKLKCPICNESFRERHHLSRHMTSHN
B2: PRKRA (protein, UniProt O75569 1-313, looked up)
Interferon-inducible …: MSQSRHRAEAPPLEREDSGTFSLGKMITAKPGKTPIQVLHEYGMKTKNIPVYECERSDVQIHVPTFTFRVTVGDITCTGEGTSKKLAKHRAAEAAINILKANASICFAVPDPLMPDPSKQPKNQLNPIGSLQELAIHHGWRLPEYTLSQEGGPAHKREYTTICRLESFMETGKGASKKQAKRNAAEKFLAKFSNISPENHISLTNVVGHSLGCTWHSLRNSPGEKINLLKRSLLSIPNTDYIQLLSEIAKEQGFNITYLDIDELSANGQYQCLAELSTSPITVCHGSGISCGNAQSDAAHNALQYLKIIAERK
B3: PRMT2 (protein, UniProt P55345 1-433, looked up)
Protein arginine …: MATSGDCPRSESQGEEPAECSEAGLLQEGVQPEEFVAIADYAATDETQLSFLRGEKILILRQTTADWWWGERAGCCGYIPANHVGKHVDEYDPEDTWQDEEYFGSYGTLKLHLEMLADQPRTTKYHSVILQNKESLTDKVILDVGCGTGIISLFCAHYARPRAVYAVEASEMAQHTGQLVLQNGFADIITVYQQKVEDVVLPEKVDVLVSEWMGTCLLFEFMIESILYARDAWLKEDGVIWPTMAALHLVPCSADKDYRSKVLFWDNAYEFNLSALKSLAVKEFFSKPKYNHILKPEDCLSEPCTILQLDMRTVQISDLETLRGELRFDIRKAGTLHGFTAWFSVHFQSLQEGQPPQVLSTGPFHPTTHWKQTLFMMDDPVPVHTGDVVTGSVVLQRNPVWRRHMSVALSWAVTSRQDPTSQKVGEKVFPIWR
B4: PROX1 (protein, UniProt P48437 1-737, looked up)
Prospero homeobox protein 1: MPDHDSTALLSRQTKRRRVDIGVKRTVGTASAFFAKARATFFSAMNPQGSEQDVEYSVVQHADGEKSNVLRKLLKRANSYEDAMMPFPGATIISQLLKNNMNKNGGTEPSFQASGLSSTGSEVHQEDICSNSSRDSPPECLSPFGRPTMSQFDVDRLCDEHLRAKRARVENIIRGMSHSPSVALRGNENEREMAPQSVSPRESYRENKRKQKLPQQQQQSFQQLVSARKEQKREERRQLKQQLEDMQKQLRQLQEKFYQVYDSTDSENDEDGDLSEDSMRSEILDARAQDSVGRSDNEMCELDPGQFIDRARALIREQEMAENKPKREGSNKERDHGPNSLQPEGKHLAETLKQELNTAMSQVVDTVVKVFSAKPSRQVPQVFPPLQIPQARFAVNGENHNFHTANQRLQCFGDVIIPNPLDTFGSVQMPSSTDQTEALPLVVRKNSSEQSASGPATGGHHQPLHQSPLSATAGFTTPSFRHPFPLPLMAYPFQSPLGAPSGSFSGKDRASPESLDLTRDTTSLRTKMSSHHLSHHPCSPAHPPSTAEGLSLSLIKSECGDLQDMSDISPYSGSAMQEGLSPNHLKKAKLMFFYTRYPSSNMLKTYFSDVKFNRCITSQLIKWFSNFREFYYIQMEKYARQAINDGVTSTEELSITRDCELYRALNMHYNKANDFEVPERFLEVAQITLREFFNAIIAGKDVDPSWKKAIYKVICKLDSEVPEIFKSPNCLQELLHE
B5: BARHL2 (protein, UniProt Q9NY43 1-387, looked up)
BarH-like 2 homeobox protein: MTMEGASGSSFGIDTILSSASSGSPGMMNGDFRPLGEARTADFRSQATPSPCSEIDTVGTAPSSPISVTMEPPEPHLVADATQHHHHLHHSQQPPPPAAAPTQSLQPLPQQQQPLPPQQPPPPPPQQLGSAASAPRTSTSSFLIKDILGDSKPLAACAPYSTSVSSPHHTPKQESNAVHESFRPKLEQEDSKTKLDKREDSQSDIKCHGTKEEGDREITSSRESPPVRAKKPRKARTAFSDHQLNQLERSFERQKYLSVQDRMDLAAALNLTDTQVKTWYQNRRTKWKRQTAVGLELLAEAGNYSALQRMFPSPYFYHPSLLGSMDSTTAAAAAAAMYSSMYRTPPAPHPQLQRPLVPRVLIHGLGPGGQPALNPLSSPIPGTPHPR
B6: RARB (protein, UniProt P10826 1-455, looked up)
Retinoic acid receptor beta: MTTSGHACPVPAVNGHMTHYPATPYPLLFPPVIGGLSLPPLHGLHGHPPPSGCSTPSPATIETQSTSSEELVPSPPSPLPPPRVYKPCFVCQDKSSGYHYGVSACEGCKGFFRRSIQKNMIYTCHRDKNCVINKVTRNRCQYCRLQKCFEVGMSKESVRNDRNKKKKETSKQECTESYEMTAELDDLTEKIRKAHQETFPSLCQLGKYTTNSSADHRVRLDLGLWDKFSELATKCIIKIVEFAKRLPGFTGLTIADQITLLKAACLDILILRICTRYTPEQDTMTFSDGLTLNRTQMHNAGFGPLTDLVFTFANQLLPLEMDDTETGLLSAICLICGDRQDLEEPTKVDKLQEPLLEALKIYIRKRRPSKPHMFPKILMKITDLRSISAKGAERVITLKMEIPGSMPPLIQEMLENSEGHEPLTPSSSGNTAEHSPSISPSSVENSGVSQSPLVQ
B7: RBBP8 (protein, UniProt Q99708 1-897, looked up)
DNA endonuclease RBBP8: MNISGSSCGSPNSADTSSDFKDLWTKLKECHDREVQGLQVKVTKLKQERILDAQRLEEFFTKNQQLREQQKVLHETIKVLEDRLRAGLCDRCAVTEEHMRKKQQEFENIRQQNLKLITELMNERNTLQEENKKLSEQLQQKIENDQQHQAAELECEEDVIPDSPITAFSFSGVNRLRRKENPHVRYIEQTHTKLEHSVCANEMRKVSKSSTHPQHNPNENEILVADTYDQSQSPMAKAHGTSSYTPDKSSFNLATVVAETLGLGVQEESETQGPMSPLGDELYHCLEGNHKKQPFEESTRNTEDSLRFSDSTSKTPPQEELPTRVSSPVFGATSSIKSGLDLNTSLSPSLLQPGKKKHLKTLPFSNTCISRLEKTRSKSEDSALFTHHSLGSEVNKIIIQSSNKQILINKNISESLGEQNRTEYGKDSNTDKHLEPLKSLGGRTSKRKKTEEESEHEVSCPQASFDKENAFPFPMDNQFSMNGDCVMDKPLDLSDRFSAIQRQEKSQGSETSKNKFRQVTLYEALKTIPKGFSSSRKASDGNCTLPKDSPGEPCSQECIILQPLNKCSPDNKPSLQIKEENAVFKIPLRPRESLETENVLDDIKSAGSHEPIKIQTRSDHGGCELASVLQLNPCRTGKIKSLQNNQDVSFENIQWSIDPGADLSQYKMDVTVIDTKDGSQSKLGGETVDMDCTLVSETVLLKMKKQEQKGEKSSNEERKMNDSLEDMFDRTTHEEYESCLADSFSQAADEEEELSTATKKLHTHGDKQDKVKQKAFVEPYFKGDERETSLQNFPHIEVVRKKEERRKLLGHTCKECEIYYADMPAEEREKKLASCSRHRFRYIPPNTPENFWEVGFPSTQTCMERGYIKEDLDPCPRPKRRQPYNAIFSPKGKEQKT
B8: RBM14 (protein, UniProt Q96PK6 1-669, looked up)
RNA-binding protein 14: MKIFVGNVDGADTTPEELAALFAPYGTVMSCAVMKQFAFVHMRENAGALRAIEALHGHELRPGRALVVEMSRPRPLNTWKIFVGNVSAACTSQELRSLFERRGRVIECDVVKDYAFVHMEKEADAKAAIAQLNGKEVKGKRINVELSTKGQKKGPGLAVQSGDKTKKPGAGDTAFPGTGGFSATFDYQQAFGNSTGGFDGQARQPTPPFFGRDRSPLRRSPPRASYVAPLTAQPATYRAQPSVSLGAAYRAQPSASLGVGYRTQPMTAQAASYRAQPSVSLGAPYRGQLASPSSQSAAASSLGPYGGAQPSASALSSYGGQAAAASSLNSYGAQGSSLASYGNQPSSYGAQAASSYGVRAAASSYNTQGAASSLGSYGAQAASYGAQSAASSLAYGAQAASYNAQPSASYNAQSAPYAAQQAASYSSQPAAYVAQPATAAAYASQPAAYAAQATTPMAGSYGAQPVVQTQLNSYGAQASMGLSGSYGAQSAAAATGSYGAAAAYGAQPSATLAAPYRTQSSASLAASYAAQQHPQAAASYRGQPGNAYDGAGQPSAAYLSMSQGAVANANSTPPPYERTRLSPPRASYDDPYKKAVAMSKRYGSDRRLAELSDYRRLSESQLSFRRSPTKSSLDYRRLPDAHSDYARYSGSYNDYLRAAQMHSGYQRRM
B9: REXO4 (protein, UniProt Q9GZR2 1-422, looked up)
RNA exonuclease 4: MGKAKVPASKRAPSSPVAKPGPVKTLTRKKNKKKKRFWKSKAREVSKKPASGPGAVVRPPKAPEDFSQNWKALQEWLLKQKSQAPEKPLVISQMGSKKKPKIIQQNKKETSPQVKGEEMPAGKDQEASRGSVPSGSKMDRRAPVPRTKASGTEHNKKGTKERTNGDIVPERGDIEHKKRKAKEAAPAPPTEEDIWFDDVDPADIEAAIGPEAAKIARKQLGQSEGSVSLSLVKEQAFGGLTRALALDCEMVGVGPKGEESMAARVSIVNQYGKCVYDKYVKPTEPVTDYRTAVSGIRPENLKQGEELEVVQKEVAEMLKGRILVGHALHNDLKVLFLDHPKKKIRDTQKYKPFKSQVKSGRPSLRLLSEKILGLQVQQAEHCSIQDAQAAMRLYVMVKKEWESMARDRRPLLTAPDHCSDDA

test system: HEK293FT cells transfected with TF library; experiment: Screening of TF condensates based on fluorescent puncta; assay type: cell-based; settings: Figure 1B numerical data; TF library screen, one value per transcriptional factor
In short: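 Condensate formation is scored as Alexa 488-labelled puncta after Flag- or GAL4-tag immunostaining of fixed HEK293FT cells expressing individual TFs, with a 12 h glucose-free or glucose-containing culture preceding fixation.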

Molecule	Z score of condensed fraction
B1	-0.8362
B2	0.8928
B3	0.936
B4	0.7937
B5	1.061
B6	-0.7014
B7	0.03488
B8	0.5955
B9	-0.3654
